# Reference: PMC4031514, “Lysine 27 Ubiquitination of the Mitochondrial Transport Protein Miro Is Dependent on Serine 65 of the Parkin Ubiquitin Ligase*” (The Journal of Biological Chemistry, 2014)
# T1: GFP-TRAK1 (mouse, UniProt Q6PD31 1-939)
# T1 construct: TRAK1, mouse; also called kinesin adaptor TRAK1
# T1 sequence (looked up): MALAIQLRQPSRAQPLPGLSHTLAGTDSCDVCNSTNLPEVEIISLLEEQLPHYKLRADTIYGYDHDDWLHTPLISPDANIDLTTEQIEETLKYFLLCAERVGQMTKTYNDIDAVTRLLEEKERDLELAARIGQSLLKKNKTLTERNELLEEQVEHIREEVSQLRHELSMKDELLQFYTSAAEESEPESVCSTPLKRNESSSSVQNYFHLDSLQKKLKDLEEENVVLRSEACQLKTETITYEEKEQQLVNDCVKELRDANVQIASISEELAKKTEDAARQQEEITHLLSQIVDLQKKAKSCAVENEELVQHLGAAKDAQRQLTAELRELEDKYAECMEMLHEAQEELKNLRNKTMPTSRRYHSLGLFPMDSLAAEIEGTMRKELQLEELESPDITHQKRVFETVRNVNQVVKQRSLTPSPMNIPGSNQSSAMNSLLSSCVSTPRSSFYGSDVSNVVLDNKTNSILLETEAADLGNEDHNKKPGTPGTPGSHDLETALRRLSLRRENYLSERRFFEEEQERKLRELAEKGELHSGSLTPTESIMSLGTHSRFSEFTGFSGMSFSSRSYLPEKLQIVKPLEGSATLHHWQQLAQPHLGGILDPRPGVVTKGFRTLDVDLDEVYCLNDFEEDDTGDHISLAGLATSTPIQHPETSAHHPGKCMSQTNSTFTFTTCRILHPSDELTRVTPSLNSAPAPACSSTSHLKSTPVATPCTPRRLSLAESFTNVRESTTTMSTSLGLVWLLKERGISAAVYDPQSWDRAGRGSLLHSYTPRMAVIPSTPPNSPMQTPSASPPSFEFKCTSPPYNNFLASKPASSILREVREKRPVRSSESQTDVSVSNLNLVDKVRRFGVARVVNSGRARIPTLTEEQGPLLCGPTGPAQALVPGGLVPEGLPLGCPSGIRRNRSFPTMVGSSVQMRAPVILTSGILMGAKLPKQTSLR
# B1: Myc-tagged Miro1 (natural protein, UniProt Q8IXI2 1-618, looked up)
# chain: MKKDVRILLVGEPRVGKTSLIMSLVSEEFPEEVPPRAEEITIPADVTPERVPTHIVDYSEAEQSDEQLHQEISQANVICIVYAVNNKHSIDKVTSRWIPLINERTDKDSRLPLILVGNKSDLVEYSSMETILPIMNQYTEIETCVECSAKNLKNISELFYYAQKAVLHPTGPLYCPEEKEMKPACIKALTRIFKISDQDNDGTLNDAELNFFQRICFNTPLAPQALEDVKNVVRKHISDGVADSGLTLKGFLFLHTLFIQRGRHETTWTVLRRFGYDDDLDLTPEYLFPLLKIPPDCTTELNHHAYLFLQSTFDKHDLDRDCALSPDELKDLFKVFPYIPWGPDVNNTVCTNERGWITYQGFLSQWTLTTYLDVQRCLEYLGYLGYSILTEQESQASAVTVTRDKKIDLQKKQTQRNVFRCNVIGVKNCGKSGVLQALLGRNLMRQKKIREDHKSYYAINTVYVYGQEKYLLLHDISESEFLTEAEIICDVVCLVYDVSNPKSFEYCARIFKQHFMDSRIPCLIVAAKSDLHEVKQEYSISPTDFCRKHKMPPPQAFTCNTADAPSKDIFVKLTTMAMYPHVTQADLKSSTFWLRASFGATVFAVLGFAMYKALLKQR
# notes: Miro1, outer mitochondrial membrane GTPase; also called mycMiro1
# Target: T1, GFP-TRAK1
# Assay: co-IP; coimmunopurification of mycMiro1 and GFP-TRAK1 from transfected cells, untreated or treated with 10 uM FCCP, 1 h; GFP-TRAP beads per the methods; lysis in 50 mM Tris pH 7.4, 150 mM NaCl, 1 mM EDTA, 0.5% Triton X-100; western blot, densitometry
# Settings: partners not purified
binder,measurement,value
B1,co-IP with FCCP relative to untreated control (1),0.94 fold of control
